Measurements as given in publication PMC2743916 (Structure (London, England : 1993), 2008).

Tests used:
crystal structure = molecular target: the molecule itself; experiment: crystal structure
Spt4 (residues 1-99) = molecular target: T1, Spt4 (residues 1-99) (S. cerevisiae, UniProt P32914 1-99); experiment: crystal structure
T1 sequence (looked up): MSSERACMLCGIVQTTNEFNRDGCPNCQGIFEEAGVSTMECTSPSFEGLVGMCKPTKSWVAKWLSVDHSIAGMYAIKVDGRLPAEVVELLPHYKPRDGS

B1: Spt4/Spt5NGN fusion protein (other, S. cerevisiae)
chain: MSSERACMLCGIVQTTNEFNRDGCPNCQGIFEEAGVSTMECTSPSFEGLVGMCKPTKSWVAKWLSVDHSIAGMYAIKVDGRLPAEVVELLPHYKPRDGSGSATIWGVRCRPGKEKELIRKLLKKKFNLDRAMGKKKLKILSIFQRDNYTGRIYIEAPKQSVIEKFCNGVPDIYISQKLLIPVQELPLLLKPN
B1: binds (crystal structure).

B2: Spt5NGN domain (residues 285-375) (domain or fragment, S. cerevisiae, UniProt P27692 285-375, looked up)
chain: ATIWGVRCRPGKEKELIRKLLKKKFNLDRAMGKKKLKILSIFQRDNYTGRIYIEAPKQSVIEKFCNGVPDIYISQKLLIPVQELPLLLKPN
B2: binds (Spt4 (residues 1-99)).
